Target: GST-tagged Cdc42, nucleotide-free (human) (UniProt P60953)
Experiment: pull-down

Sequence of UniProt P60953 (P60953 whole entry): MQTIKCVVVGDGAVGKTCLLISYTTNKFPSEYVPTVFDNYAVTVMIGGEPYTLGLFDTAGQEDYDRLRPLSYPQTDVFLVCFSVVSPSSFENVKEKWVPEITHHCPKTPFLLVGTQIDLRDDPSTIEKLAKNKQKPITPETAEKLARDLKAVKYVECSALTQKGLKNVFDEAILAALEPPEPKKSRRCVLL

Substance “MBP-Map residues 37–203 (from UniProt P0AE18 37-203) (domain or fragment)” has a stoichiometry N of 1.

Reference: PMC5130228
